# Assay results reported in IntAct's records for PubMed 36931259.
# B1: 14-3-3 protein sigma (Homo sapiens), P31947 (parent)
# chain: MERASLIQKAKLAEQAERYEDMAAFMKGAVEKGEELSCEERNLLSVAYKNVVGGQRAAWRVLSSIEQKSNEEGSEEKGPEVREYREKVETELQGVCDTVLGLLDSHLIKEAGDAESRVFYLKMKGDYYRYLAEVATGDDKKRIIDSARSAYQEAMDISKKEMPPTNPIRLGLALNFSVFHYEIANSPEEAISLAKTTFDEAMADLHTLSEDSYKDSTLIMQLLRDNLTLWTADNAGEEGGEAPQEPQS
# partner: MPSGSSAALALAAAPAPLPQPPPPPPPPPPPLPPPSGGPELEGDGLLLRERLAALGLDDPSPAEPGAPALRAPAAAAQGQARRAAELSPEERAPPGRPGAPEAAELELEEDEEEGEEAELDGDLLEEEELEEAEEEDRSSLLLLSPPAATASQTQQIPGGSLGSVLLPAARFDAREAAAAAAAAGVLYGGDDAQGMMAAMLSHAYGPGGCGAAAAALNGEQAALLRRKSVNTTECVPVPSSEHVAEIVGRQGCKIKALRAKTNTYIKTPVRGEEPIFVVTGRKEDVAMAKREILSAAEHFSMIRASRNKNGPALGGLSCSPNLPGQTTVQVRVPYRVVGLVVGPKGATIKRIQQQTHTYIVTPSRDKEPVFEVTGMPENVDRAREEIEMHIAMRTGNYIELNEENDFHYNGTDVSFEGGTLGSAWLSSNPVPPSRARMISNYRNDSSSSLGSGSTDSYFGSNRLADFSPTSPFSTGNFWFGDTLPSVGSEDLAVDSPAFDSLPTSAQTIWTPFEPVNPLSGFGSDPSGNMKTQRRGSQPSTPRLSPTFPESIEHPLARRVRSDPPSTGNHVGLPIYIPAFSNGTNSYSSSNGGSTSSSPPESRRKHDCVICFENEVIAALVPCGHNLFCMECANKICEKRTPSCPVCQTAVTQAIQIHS
# B2: 14-3-3 protein sigma (Homo sapiens), P31947 (parent)
# chain: B1 chain
# partner: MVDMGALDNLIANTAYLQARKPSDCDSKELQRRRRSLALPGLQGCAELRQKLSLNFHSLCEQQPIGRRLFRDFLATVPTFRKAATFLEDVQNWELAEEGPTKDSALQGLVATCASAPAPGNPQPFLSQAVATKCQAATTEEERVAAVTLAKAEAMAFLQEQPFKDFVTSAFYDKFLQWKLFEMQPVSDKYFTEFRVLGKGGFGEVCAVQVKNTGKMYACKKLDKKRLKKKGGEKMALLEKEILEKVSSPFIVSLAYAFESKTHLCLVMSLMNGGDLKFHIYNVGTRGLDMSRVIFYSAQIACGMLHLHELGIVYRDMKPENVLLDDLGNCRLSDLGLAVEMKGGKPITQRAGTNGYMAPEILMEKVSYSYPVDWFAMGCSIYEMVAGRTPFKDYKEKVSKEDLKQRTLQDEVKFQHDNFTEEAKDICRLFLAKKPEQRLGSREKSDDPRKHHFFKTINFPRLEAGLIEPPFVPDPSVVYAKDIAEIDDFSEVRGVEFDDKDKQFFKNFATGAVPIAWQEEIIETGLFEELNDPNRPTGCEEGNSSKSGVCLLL
# B3: 14-3-3 protein sigma (Homo sapiens), P31947 (parent)
# chain: B1 chain
# partner: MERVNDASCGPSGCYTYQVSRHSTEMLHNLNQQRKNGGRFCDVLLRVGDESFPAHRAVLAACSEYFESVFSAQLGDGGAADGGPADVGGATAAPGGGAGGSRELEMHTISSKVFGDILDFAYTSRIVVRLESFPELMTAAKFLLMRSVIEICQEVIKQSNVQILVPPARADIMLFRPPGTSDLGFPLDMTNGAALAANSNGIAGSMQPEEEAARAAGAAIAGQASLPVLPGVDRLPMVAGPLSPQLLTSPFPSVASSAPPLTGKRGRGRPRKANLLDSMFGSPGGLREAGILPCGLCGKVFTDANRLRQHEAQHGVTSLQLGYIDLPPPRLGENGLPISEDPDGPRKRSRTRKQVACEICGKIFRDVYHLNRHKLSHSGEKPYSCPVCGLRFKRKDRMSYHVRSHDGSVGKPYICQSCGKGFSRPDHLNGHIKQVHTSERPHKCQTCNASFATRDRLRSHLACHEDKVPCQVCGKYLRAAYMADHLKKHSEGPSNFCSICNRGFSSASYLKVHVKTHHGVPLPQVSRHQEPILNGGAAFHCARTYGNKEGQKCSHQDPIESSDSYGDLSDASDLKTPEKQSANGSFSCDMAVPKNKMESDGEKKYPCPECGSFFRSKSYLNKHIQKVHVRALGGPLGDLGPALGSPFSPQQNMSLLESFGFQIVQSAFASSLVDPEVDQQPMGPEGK
# B4: 14-3-3 protein sigma (Homo sapiens), P31947 (parent)
# chain: B1 chain
# partner: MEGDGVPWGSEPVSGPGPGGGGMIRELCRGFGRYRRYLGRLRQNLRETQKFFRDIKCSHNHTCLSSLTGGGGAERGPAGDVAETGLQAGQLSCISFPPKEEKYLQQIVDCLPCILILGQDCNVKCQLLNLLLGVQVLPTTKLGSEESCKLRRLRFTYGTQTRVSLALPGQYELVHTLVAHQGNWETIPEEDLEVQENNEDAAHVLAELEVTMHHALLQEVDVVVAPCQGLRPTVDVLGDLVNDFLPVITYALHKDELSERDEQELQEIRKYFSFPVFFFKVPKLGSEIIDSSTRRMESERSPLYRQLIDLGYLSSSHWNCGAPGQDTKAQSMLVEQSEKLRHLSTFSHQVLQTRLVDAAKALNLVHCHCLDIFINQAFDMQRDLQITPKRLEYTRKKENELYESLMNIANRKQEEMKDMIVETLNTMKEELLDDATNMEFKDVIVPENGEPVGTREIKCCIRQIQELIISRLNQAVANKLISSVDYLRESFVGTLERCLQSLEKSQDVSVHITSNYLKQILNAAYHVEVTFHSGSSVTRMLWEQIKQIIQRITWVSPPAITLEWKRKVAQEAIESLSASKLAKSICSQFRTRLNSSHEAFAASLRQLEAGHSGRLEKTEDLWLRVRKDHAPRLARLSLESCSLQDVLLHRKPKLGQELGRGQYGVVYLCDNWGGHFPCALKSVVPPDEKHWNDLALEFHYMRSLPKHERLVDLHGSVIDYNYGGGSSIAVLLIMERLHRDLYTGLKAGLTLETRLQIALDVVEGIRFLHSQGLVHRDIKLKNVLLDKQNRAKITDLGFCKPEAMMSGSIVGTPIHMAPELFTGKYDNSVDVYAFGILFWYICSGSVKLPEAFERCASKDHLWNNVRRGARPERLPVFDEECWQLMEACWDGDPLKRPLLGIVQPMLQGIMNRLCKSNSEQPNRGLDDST
# B5: 14-3-3 protein sigma (Homo sapiens), P31947 (parent)
# chain: B1 chain
# partner: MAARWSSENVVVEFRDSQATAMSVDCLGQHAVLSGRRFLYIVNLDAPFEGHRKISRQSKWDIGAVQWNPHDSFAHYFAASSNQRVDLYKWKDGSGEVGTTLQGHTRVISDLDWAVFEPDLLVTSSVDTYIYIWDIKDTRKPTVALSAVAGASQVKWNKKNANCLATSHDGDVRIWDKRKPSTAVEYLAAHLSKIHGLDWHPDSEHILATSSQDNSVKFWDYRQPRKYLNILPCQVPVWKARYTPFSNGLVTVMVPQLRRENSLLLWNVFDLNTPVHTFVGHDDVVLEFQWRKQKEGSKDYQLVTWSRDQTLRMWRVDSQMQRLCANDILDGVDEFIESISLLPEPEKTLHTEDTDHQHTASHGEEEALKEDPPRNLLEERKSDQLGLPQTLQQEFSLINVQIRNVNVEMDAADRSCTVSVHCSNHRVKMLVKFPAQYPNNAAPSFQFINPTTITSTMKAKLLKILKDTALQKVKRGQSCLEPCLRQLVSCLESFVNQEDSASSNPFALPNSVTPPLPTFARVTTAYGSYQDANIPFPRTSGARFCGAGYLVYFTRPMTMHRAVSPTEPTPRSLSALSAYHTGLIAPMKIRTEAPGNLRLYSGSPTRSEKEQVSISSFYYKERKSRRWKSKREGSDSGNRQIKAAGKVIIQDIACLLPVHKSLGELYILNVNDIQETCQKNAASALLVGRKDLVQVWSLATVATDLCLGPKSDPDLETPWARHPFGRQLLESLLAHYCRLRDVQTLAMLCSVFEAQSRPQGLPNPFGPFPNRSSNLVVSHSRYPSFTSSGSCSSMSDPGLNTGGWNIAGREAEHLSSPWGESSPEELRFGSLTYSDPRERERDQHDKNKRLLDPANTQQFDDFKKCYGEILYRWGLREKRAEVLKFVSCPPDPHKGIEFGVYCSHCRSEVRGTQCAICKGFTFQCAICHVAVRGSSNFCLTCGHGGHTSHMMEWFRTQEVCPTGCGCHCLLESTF
# B6: 14-3-3 protein sigma (Homo sapiens), P31947 (parent)
# chain: B1 chain
# partner: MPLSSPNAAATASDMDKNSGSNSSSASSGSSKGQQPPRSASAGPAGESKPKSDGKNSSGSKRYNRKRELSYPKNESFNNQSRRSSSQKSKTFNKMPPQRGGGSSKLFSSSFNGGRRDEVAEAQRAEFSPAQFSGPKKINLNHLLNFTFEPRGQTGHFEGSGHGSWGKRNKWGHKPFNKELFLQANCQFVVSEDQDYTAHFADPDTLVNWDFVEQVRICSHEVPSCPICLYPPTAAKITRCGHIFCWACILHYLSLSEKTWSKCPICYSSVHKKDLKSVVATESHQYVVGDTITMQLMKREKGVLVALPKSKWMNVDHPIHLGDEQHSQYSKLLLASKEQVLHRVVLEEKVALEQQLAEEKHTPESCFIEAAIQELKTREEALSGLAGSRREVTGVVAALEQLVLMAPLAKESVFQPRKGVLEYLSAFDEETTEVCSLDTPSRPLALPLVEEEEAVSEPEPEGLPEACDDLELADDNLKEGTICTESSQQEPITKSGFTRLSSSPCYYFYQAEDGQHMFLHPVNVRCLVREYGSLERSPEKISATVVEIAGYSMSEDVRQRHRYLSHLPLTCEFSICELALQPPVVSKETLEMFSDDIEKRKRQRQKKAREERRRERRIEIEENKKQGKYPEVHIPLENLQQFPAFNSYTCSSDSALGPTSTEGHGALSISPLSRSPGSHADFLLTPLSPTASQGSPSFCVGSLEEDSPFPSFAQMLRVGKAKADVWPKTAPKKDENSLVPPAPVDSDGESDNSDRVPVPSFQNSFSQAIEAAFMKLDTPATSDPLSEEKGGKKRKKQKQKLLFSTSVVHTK
# Variants of: B1
# Conditions: with mex3c_human MEX3C
row,Variant,effect of a mutation on the interaction
1,K49E;R56E;V178D,decreasing interaction strength

# Variants of: B2
# Conditions: with grk7_human GRK7, Q8WTQ7
row,Variant,effect of a mutation on the interaction
1,K49E;R56E;V178D,decreasing interaction strength

# Variants of: B3
# Conditions: with patz1_human PATZ1, Q9HBE1
row,Variant,effect of a mutation on the interaction
1,K49E;R56E;V178D,decreasing interaction strength

# Variants of: B4
# Conditions: with dusty_human DSTYK
row,Variant,effect of a mutation on the interaction
1,K49E;R56E;V178D,decreasing interaction strength

# Variants of: B5
# Conditions: with wdr59_human WDR59, Q6PJI9
row,Variant,effect of a mutation on the interaction
1,K49E;R56E;V178D,decreasing interaction strength

# Variants of: B6
# Conditions: with rnf10_human RNF10, Q8N5U6
row,Variant,effect of a mutation on the interaction
1,K49E;R56E;V178D,decreasing interaction strength
